Source: the supplement of paper PMC10126150
± gives the standard deviation of the averaged measurements.

System: ATP
Experiment: switch fluorescence ratio, 500 uM ATP over buffer (Cy3 cluster intensity, sum of 5 cycles each) (fold (ratio)); higher = stronger signal-on switching upon ATP binding; sequences stand for … in TCGTCGGCAGCGTCAGATGTGTATAAGAGACAGTTTTTTTTTTTTTTTTTTTTTTTTT…TC
Conditions: aptamer strand: ATP DNA aptamer (quencher-CACCTGGGGGAGTATTGCGGAGGAAGG + anchor), 100 nM annealed; ATP concentration: 500 uM
How it was run: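 Cy3-labelled switching-strand clusters on a modified Illumina MiSeq flow-cell were annealed to 100 nM quencher-labelled ATP aptamer, imaged in selection buffer, then imaged after 15 min with 500 uM ATP at 22 °C. Five buffer/ATP cycles ran, with NaOH stripping and re-annealing between them. The fluorescence ratio is summed target-cycle over summed buffer-cycle Cy3 intensity per cluster, averaged per switch-domain sequence. Clusters outside 100-1000 RFU were excluded.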
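Note: ATP exposure 15 min at 22 °C before imaging.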

Row | Sequence | switch fluorescence ratio
1 | ATTTCAAATT | 1.02 ± 0.028
2 | ATTTCACGGC | 1.05 ± 0.024
3 | ATTTCAGGTC | 1.02 ± 0.013
4 | ATTTCCATGT | 0.978 ± 0.011
5 | ATTTCCCTGT | 1.01 ± 0.044
6 | ATTTCCGCAG | 3.82 ± 0.56
7 | ATTTCGTAGG | 1.01 ± 0.024
8 | ATTTCTGGGA | 0.982 ± 0.031
9 | ATTTCTTGGG | 0.99703 ± 0.00034
10 | ATTTGAGCGT | 1.02 ± 0.014
11 | ATTTGAGTTG | 0.965 ± 0.01
12 | ATTTGATAGT | 1.007 ± 0.0052
13 | ATTTGCATAC | 2.62 ± 0.39
14 | ATTTGCATGC | 1 ± 0.012
15 | ATTTGCCGGG | 1.031 ± 0.0081
16 | ATTTGCGAAT | 0.966 ± 0.039
17 | ATTTGCGAGG | 1.01 ± 0.017
18 | ATTTGCGGCT | 0.958 ± 0.062
19 | ATTTGCGGTG | 1.01 ± 0.019
20 | ATTTGCTGCG | 0.947 ± 0.087
21 | ATTTGGAAAG | 0.999 ± 0.021
22 | ATTTGGATGC | 1.01 ± 0.042

Row | Sequence | switch fluorescence ratio
23 | ATTTGGGACT | 1.03 ± 0.036
24 | ATTTGGGAGA | 0.978 ± 0.042
25 | ATTTGGGGGA | 0.999 ± 0.029
26 | ATTTGGGGGC | 0.973 ± 0.057
27 | ATTTGGGGGG | 1 ± 0.047
28 | ATTTGGGTGA | 1.03 ± 0.047
29 | ATTTGGGTGG | 0.987 ± 0.041
30 | ATTTGGGTGT | 1.05 ± 0.02
31 | ATTTGGTATC | 0.997 ± 0.017
32 | ATTTGGTCGT | 0.979 ± 0.048
33 | ATTTGGTGTT | 1.01 ± 0.032
34 | ATTTGTAAGA | 0.9927 ± 0.0045
35 | ATTTGTCCGT | 1.03 ± 0.018
36 | ATTTGTGGTT | 0.9752 ± 0.0085
37 | ATTTGTTTTC | 0.953 ± 0.013
38 | ATTTTAAAGA | 1.009 ± 0.0062
39 | ATTTTAAGGG | 1.003 ± 0.0042
40 | ATTTTAATGG | 0.9907 ± 0.0036
41 | ATTTTAATTG | 1.02 ± 0.016
42 | ATTTTAGATG | 1 ± 0.025
43 | ATTTTAGGGA | 0.98918 ± 0.00041
44 | ATTTTAGGGG | 0.983 ± 0.035

Row | Sequence | switch fluorescence ratio
45 | ATTTTAGTTT | 1 ± 0.016
46 | ATTTTATCTC | 1.22 ± 0.27
47 | ATTTTCGGTT | 0.997 ± 0.034
48 | ATTTTCGTTT | 0.945 ± 0.024
49 | ATTTTGAAAG | 1.01 ± 0.022
50 | ATTTTGATAC | 1.01 ± 0.044
51 | ATTTTGATAT | 1.01 ± 0.018
52 | ATTTTGATGT | 0.995 ± 0.051
53 | ATTTTGCGTT | 0.998 ± 0.031
54 | ATTTTGGGGC | 1.03 ± 0.018
55 | ATTTTGGTAT | 1.01 ± 0.027
56 | ATTTTGGTGA | 1 ± 0.035
57 | ATTTTGTGGG | 1 ± 0.023
58 | ATTTTTAAAC | 0.992 ± 0.066
59 | ATTTTTAAGG | 0.995 ± 0.021
60 | ATTTTTAATC | 1.06 ± 0.14
61 | ATTTTTAGAC | 1.03 ± 0.022
62 | ATTTTTATAC | 1.02 ± 0.021
63 | ATTTTTCTAT | 0.987 ± 0.027
64 | ATTTTTCTGA | 1 ± 0.019
65 | ATTTTTGCGT | 1.01 ± 0.041
66 | ATTTTTGCTT | 0.994 ± 0.019

Row | Sequence | switch fluorescence ratio
67 | ATTTTTGGAG | 0.9792 ± 0.0053
68 | ATTTTTGGCC | 1.02 ± 0.035
69 | ATTTTTGTCT | 0.983 ± 0.06
70 | ATTTTTGTTT | 0.985 ± 0.023
71 | ATTTTTTAAA | 0.994 ± 0.027
72 | ATTTTTTAGT | 0.983 ± 0.013
73 | ATTTTTTGGA | 1.01 ± 0.026
74 | ATTTTTTGTG | 0.9732 ± 0.0082
75 | ATTTTTTTCC | 1.38 ± 0.57
76 | ATTTTTTTTG | 0.987 ± 0.023
77 | ATTTTTTTTT | 1 ± 0.026
78 | CAAAAAGGCG | 1.03 ± 0.054
79 | CAAAAAGTAG | 1.014 ± 0.0062
80 | CAAAACAGGT | 1.01 ± 0.032
81 | CAAAAGGAAA | 0.992 ± 0.022
82 | CAAAATAAGA | 1.01 ± 0.017
83 | CAAAATACGG | 1.07 ± 0.052
84 | CAAACATTTT | 0.9795 ± 0.0044
85 | CAAACTCCCA | 1.16 ± 0.18
